Laboratory results taken from patent publication US20250066499A1 (SUNSHINE GUOJIAN PHARMACEUTICAL SHANGHAI, published 2025).

Assays:
[1] = biological target: T1, CD73-ND-L138A (human, UniProt P21589 27-317); test: ELISA; decline multiple of EC50 against CD73-ND
T1 construct: Alanine mutant of CD73-ND
T1 sequence: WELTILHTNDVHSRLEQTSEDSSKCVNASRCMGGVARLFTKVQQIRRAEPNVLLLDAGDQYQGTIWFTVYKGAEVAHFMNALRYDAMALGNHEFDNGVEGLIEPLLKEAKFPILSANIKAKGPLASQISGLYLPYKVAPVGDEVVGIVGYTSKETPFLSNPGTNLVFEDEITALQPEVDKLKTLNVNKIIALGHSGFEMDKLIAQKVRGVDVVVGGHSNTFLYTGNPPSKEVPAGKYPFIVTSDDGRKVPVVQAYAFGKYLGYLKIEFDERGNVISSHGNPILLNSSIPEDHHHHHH
Description: (§1) The ELISA plates were coated with SA protein diluted to 1.5 μg/mL in coating buffer (50 mM carbonate coating buffer, pH 9.6) and incubated overnight at 4° C. The supernatant was discarded, and the plates were washed three times with PBST. Then, 5% skimmed milk powder prepared with PBS was added for blocking and the plates were incubated for 2 h at 37° C. After washing the plates once with PBST, CD73-biotin protein (prepared by biotinylating CD73-His protein according to the EZ-Link NHS-Biotin Reagent instructions) was diluted to 0.5 μg/mL and added at 100 μL/well for incubation at room temperature for 1 h. The plates were washed three times with PBST, and the prepared murine-derived monoclonal antibodies against human CD73 were serially diluted with 1% BSA buffer prepared with PBST and added to the ELISA plates at 100 μl/well. The plates were incubated at 37° C. for 1 h. After washing the plates three times with PBST, HRP-labeled goat anti-mouse IgG secondary antibody was added and the plates were incubated for 30 min at 37° C. After washing the plates three times with PBST, the residual droplets were patted dry on absorbent paper as much as possible. Then, 100 μl of TMB color developing solution was added to each well, and the plates were incubated in the dark at room temperature for 5 min for color development. Subsequently, 50 μl of 2M H₂SO₄ stop solution was added to each well to terminate the substrate reaction. The OD values were read at 450 nm using a multimode microplate reader to analyze the binding ability of the tested antibodies to the target antigen human CD73-His.
(§2) Referring to the experimental method in Example 3, the affinity of 48A11-HuV33 for various mutant proteins of CD73-ND was determined. The SA protein was diluted to 1 μg/mL for coating the ELISA plates, and the biotinylated CD73 protein (CD73-biotin) was used at a concentration of 0.1 μg/mL.

[2] = biological target: T2, CD73-ND-L184A (human, UniProt P21589 27-317); test: ELISA, high plateau value (OD 450 nm)
T2 construct: Alanine mutant of CD73-ND
T2 sequence: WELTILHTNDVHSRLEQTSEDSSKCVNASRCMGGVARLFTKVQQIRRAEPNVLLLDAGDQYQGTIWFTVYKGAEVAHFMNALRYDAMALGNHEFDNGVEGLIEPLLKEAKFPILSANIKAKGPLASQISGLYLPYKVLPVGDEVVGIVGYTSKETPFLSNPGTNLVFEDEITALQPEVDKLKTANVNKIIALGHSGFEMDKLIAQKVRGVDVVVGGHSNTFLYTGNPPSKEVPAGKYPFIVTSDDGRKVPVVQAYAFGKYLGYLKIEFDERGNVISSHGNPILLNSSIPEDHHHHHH
Description: as §1, §2

[3] = biological target: T3, CD73-ND-D142A (human, UniProt P21589 27-317); test: ELISA, high plateau value (OD 450 nm)
T3 construct: Alanine mutant of CD73-ND
T3 sequence: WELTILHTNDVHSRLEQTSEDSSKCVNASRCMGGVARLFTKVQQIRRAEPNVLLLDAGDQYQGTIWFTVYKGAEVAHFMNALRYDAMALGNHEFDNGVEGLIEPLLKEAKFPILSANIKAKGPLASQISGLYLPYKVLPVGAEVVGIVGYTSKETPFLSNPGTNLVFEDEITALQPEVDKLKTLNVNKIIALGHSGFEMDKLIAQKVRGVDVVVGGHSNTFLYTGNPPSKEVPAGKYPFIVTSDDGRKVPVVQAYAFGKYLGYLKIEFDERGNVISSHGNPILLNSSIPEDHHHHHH
Description: as §1, §2

[4] = biological target: T4, CD73-ND-his (human, UniProt P21589 27-317); test: ELISA, high plateau value (OD 450 nm)
T4 construct: Biotinylated and captured on streptavidin in the ELISA
T4 sequence: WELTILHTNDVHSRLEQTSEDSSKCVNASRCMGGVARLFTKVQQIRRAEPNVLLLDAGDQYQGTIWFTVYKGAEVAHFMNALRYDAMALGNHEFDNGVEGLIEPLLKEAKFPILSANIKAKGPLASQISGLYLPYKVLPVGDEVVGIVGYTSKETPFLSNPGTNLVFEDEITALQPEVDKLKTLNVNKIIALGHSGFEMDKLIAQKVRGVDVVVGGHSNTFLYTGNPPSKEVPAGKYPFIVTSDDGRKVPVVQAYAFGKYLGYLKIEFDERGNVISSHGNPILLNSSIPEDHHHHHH
Description: as §1, §2

[5] = biological target: T5, CD73-ND-N187A (human, UniProt P21589 27-317); test: ELISA; decline multiple of EC50 against CD73-ND
T5 construct: Alanine mutant of CD73-ND
T5 sequence: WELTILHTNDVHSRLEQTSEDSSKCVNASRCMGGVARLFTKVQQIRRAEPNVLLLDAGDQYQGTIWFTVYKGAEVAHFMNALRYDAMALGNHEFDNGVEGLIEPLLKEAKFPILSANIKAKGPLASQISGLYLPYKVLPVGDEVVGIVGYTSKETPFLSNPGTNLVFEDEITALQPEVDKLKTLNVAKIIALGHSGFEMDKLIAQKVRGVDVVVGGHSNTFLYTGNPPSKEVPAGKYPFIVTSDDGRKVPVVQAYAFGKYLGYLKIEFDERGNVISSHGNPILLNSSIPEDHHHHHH
Description: as §1, §2

[6] = biological target: T6, CD73-ND-V186A (human, UniProt P21589 27-317); test: ELISA; decline multiple of EC50 against CD73-ND
T6 construct: Alanine mutant of CD73-ND
T6 sequence: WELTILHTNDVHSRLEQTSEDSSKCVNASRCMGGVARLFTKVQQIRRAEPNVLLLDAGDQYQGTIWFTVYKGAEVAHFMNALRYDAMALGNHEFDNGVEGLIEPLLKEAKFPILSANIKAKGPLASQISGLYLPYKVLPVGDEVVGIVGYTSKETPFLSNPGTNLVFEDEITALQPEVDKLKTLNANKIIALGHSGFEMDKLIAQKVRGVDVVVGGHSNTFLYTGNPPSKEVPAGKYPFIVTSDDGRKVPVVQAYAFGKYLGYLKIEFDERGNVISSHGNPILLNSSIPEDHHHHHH
Description: as §1, §2

[7] = biological target: T4, CD73-ND-his; test: ELISA; decline multiple of EC50 against CD73-ND
Description: as §1, §2

B1: 48A11-HuV33 (antibody, human IgG4, V domains shown)
VH: QVQLVQSGAEVKKPGASVKVSCKASGYTFTSYWMHWVRQAPGQGLEWIGEINPSIGRTNYNEKFKSRVTLTRDTSTSTAYMELSSLRSEDTAVYYCARRVYGTMDYWGQGTLVTVSS
VL: DIQMTQSPSSLSASVGDRVTITCKASQDINSYLSWFQQKPGKSPKLLIYRANIWVDGVPSRFSGSGSGQDYTFTISSLQPEDIATYYCLQYDELYTFGQGTKVEIK
notes: Humanized
[1]
  Ratio(EC50): 1.2 fold
[2]
  Top: 1.7
[3]
  Top: 1.84
[4]
  Top: 2
[5]
  Ratio(EC50): 0.9 fold
[6]
  Ratio(EC50): 1.4 fold
[7]
  Ratio(EC50): 0.8 fold
